In patent US12415847B2, “ApoM-Fc fusion proteins for treating lung diseases” (Children's Medical Center Corporation, priority 2018, dated 2025):

Experiments:
[1] = free ApoM not associated with HDL; Faber et al. 2006; cited from earlier work
S1P1 receptor [2] = molecular target: T1, S1P1 receptor (Homo sapiens, UniProt P21453); experiment: Nanobit split luciferase assay, beta-arrestin coupling; format: cell-based; conditions: transfected 293A cells; 1000 nM-0.3 nM S1P
T1 construct: expressed in transfected cells; host or cells: Human 293A cells, transient PEI transfection
Protocol: (§1) FIGS. 5A-5B. Nanobit analysis of Human ApoMFc-S1P, Mouse ApoMFc-S1P, or BSA-S1P (Positive Control). […] BSA-S1P is the well-established activator of the S1PR1 and it was tested whether Human ApoMFc-S1P, Mouse ApoMFc-S1P gave equivalent induction of receptor activation. Data are the means of triplicate wells with the baseline (pre-stimulation) signal subtracted from the final luciferase signal and graphs are expressed with standard deviation.
(§2) The S1P receptors are members of the G-protein coupled receptor (GPCR) superfamily. Receptor activation is characterized by immediate activation of a G-protein complex (alpha-beta-gamma) that activates multiple intracellular signaling pathways and then secondary activation of coupling to the protein beta-arrestin, which may cause receptor internalization and desensitization as well as activation of other intracellular signaling pathways. […]
(§3) There are two general forms of this assay. […] Upon activation of the GPCR, the G-Protein alpha-beta-gamma complex […] and Luciferase activity may be detected by measuring emitted light in the presence of luciferase substrate (luciferin). […] It is notable that G-Protein assay results in decreased relative fluorescence with increased receptor activation, while the Beta-arrestin coupling assay results in increased relative fluorescence with increased receptor activation. […]
Target sequence in this assay (P21453 whole entry): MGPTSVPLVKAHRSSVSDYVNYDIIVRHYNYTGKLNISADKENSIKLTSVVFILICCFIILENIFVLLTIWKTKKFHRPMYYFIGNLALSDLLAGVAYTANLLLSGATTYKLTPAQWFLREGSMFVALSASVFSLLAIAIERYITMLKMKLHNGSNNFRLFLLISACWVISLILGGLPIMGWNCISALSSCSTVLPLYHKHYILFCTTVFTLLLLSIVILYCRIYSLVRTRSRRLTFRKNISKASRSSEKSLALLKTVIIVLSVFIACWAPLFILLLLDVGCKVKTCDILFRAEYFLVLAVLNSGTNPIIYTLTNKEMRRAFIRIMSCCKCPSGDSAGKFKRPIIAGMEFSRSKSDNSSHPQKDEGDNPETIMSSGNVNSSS
Target sequence in this assay (P49407 whole entry partner): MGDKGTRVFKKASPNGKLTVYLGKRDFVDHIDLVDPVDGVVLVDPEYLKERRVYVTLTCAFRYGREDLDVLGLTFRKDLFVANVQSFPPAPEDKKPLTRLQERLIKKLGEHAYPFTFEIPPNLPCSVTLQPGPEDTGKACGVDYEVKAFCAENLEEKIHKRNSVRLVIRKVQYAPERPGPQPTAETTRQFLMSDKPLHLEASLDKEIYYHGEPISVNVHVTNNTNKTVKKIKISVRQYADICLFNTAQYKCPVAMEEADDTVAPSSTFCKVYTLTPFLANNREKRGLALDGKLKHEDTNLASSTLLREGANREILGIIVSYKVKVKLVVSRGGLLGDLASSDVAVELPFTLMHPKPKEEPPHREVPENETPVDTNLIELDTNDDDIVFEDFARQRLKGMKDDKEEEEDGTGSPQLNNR

HUVECs = experiment: Trans-endothelial electrical resistance (TEER); format: cell-based, human; conditions: 4 μg/well, 250 nM S1P, 6 hour time point
Protocol: FIG. 4. Human and Mouse ApoM-Fc-S1P enhanced endothelial Barrier Protection. Human ApoMFc-S1P (4 μg/well, 250 nM S1P), Mouse ApoMFc-S1P (4 μg/well, 250 nM S1P), or BSA-S1P (250 nM S1P; Positive Control) were analyzed using transepithelial/transendothelial electrical resistance (TEER). The results of TEER analysis of HUVECs at the 6 hour time point are shown. BSA-S1P is the well-established activator of the S1PR1 and it was tested whether Human ApoMFc-S1P, Mouse ApoMFc-S1P gave equivalent induction of receptor activation. All results are normalized to individual well baselines (baseline=1), expressed as the mean of triplicate wells, and Standard Deviation (S.D.) is expressed as gray vertical bars over the course of the data set. […]
0.1 ml of Human Umbilical Vascular Endothelial Cells (HUVECS; 200,000 cells/ml in EGM-2 culture medium, Lonza) were seeded into a 96 well electrical conductance chamber (ECIS Cultureware; Applied Biophysics, Inc) pre-coated with 1% Fibronectin resuspended in Saline. After overnight incubation at 37° C./5% CO2, the 96-well plate was placed on the ECIS reader (Applied Biophysics; Ztheta 96-well array station) and baseline resistance was established which represents the quality of Endothelial junction strength or Endothelial barrier function. […]

S1P1 receptor [3] = molecular target: T1, S1P1 receptor; experiment: Nanobit split luciferase assay, Gi-alpha coupling; format: cell-based; conditions: transfected 293A cells; 1000 nM-0.3 nM S1P
Protocol: as §1, §2, §3
Target sequence in this assay (P21453 whole entry): as the sequence (P21453 whole entry) above

activation of beta-arrestin coupling to the S1P1 receptor (S1P1 receptor [2])	activation of Gi-alpha coupling to the S1P1 receptor (S1P1 receptor [3])	Molecule	half-life [1]	endothelial barrier protection (TEER) (HUVECs)
		Free ApoM: free ApoM that is not associated with HDL; 26-kDa protein (protein, UniProt O95445 1-188, looked up) Apolipoprotein M: MFHQIWAALLYFYGIILNSIYQCPEHSQLTTLGVDGKEFPEVHLGQWYFIAGAAPTKEELATFDPVDNIVFNMAAGSAPMQLHLRATIRMKDGLCVPRKWIYHLTEGSTDLRTEGRPDMKTELFSSSCPGGIMLNETGQGYQRFLLYNRSPHPPEKCVEEFKSLTSCLDSKAFLLTPRNQEACELSNN	extremely short	
equivalently activates	equivalently activates	Mouse ApoMFc-S1P: Mouse ApoM-mouse IgG1Fc fusion (mApoM-Fc) loaded with S1P (protein) NQCPEHSQLTALGMDDTETPEPHLGLWYFIAGAAPTTEELATFDPVDNIVFNMAAGSAPRQLQLRATIRTKSGVCVPRKWTYRLTEGKGNMELRTEGRPDMKTDLFSSSCPGGIMLKETGQGYQRFLLYNRSPHPPEKCVEEFKSLTSCLDFKAFLVTPRNQEACPLSSKWISSASSAKTTPPSVYPLAPGSAAQTNSMVTLGCLVKGYFPEPVTVTWNSGSLSSGVHTFPAVLQSDLYTLSSSVTVPSSTWPSETVTCNVAHPASSTKVDKKIVPRDCGCKPCICTVPEVSSVFIFPPKPKDVLTITLTPKVTCVVVDISKDDPEVQFSWFVDDVEVHTAQTQPREEQFNSTFRSVSELPIMHQDWLNGKEFKCRVNSAAFPAPIEKTISKTKGRPKAPQVYTIPPPKEQMAKDKVSLTCMITDFFPEDITVEWQWNGQPAENYKNTQPIMDTDGSYFVYSKLNVQKSNWEAGNTFTCSVLHEGLHNHHTEKSLSHSPGK		enhance endothelial Barrier Protection
